According to the supplement of paper PMC7877785:
± gives the uncertainty stated by the source.

Experiment: self-splicing fitness, log relative to wild type (ln ratio); higher = more splicing; Tetrahymena group I intron in knt gene, E. coli kanamycin selection, DiMSum; sequences stand for … in CUCUCU…GGAGGGAAAAGUUAUCAGGCAUGCACCUGGUAGCUAGUCUUUAAACCAAUAGAUUGCAUCGGUUUAAAAGGCAAGACCGUCAAAUUGCGGGAAAGGGGUCAACAGCCGUUCAGUACCAAGUCUCAGGGGAAACUUUGAGAUGGCCUUGCAAAGGGUAUGGUAAUAAGCUGACGGACAUGGUCCUAACCACGCAGCCAAGUCCUAAGUCAACAGAUCUUCUGUUGAUAUGGAUGCAGUUCACAGACUAAAUGUCGGUCGGGGAAGAUGUAUUCUUCUCAUAAGAUAUAGUCGGACCUCUCCUUAAUGGGAGCUAGCGGAUGAAGUGAUGCAACACUGGAGCCGCUGGGAACUAAUUUGUAUGCGAAAGUAUAUUGAUUAGUUUUGGAGUACUCGUGGUCG
Outline: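 A randomised library covering all eight P1ex-region intron nucleotides was built with the intron in the knt kanamycin-resistance gene on pET-22b(+) and held in E. coli BL21(DE3). Cells were grown overnight at 37°C or 30°C on LB agar, with or without 25 μg/mL kanamycin, plus 100 μg/mL carbenicillin, 50 μM IPTG and 0.2% rhamnose, and pooled colonies were amplicon-sequenced on an Illumina HiSeq 2500. DiMSum fitness is the error-weighted combination of wild-type-normalised replicate fold changes, kanamycin versus none.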

Row | Sequence | self-splicing fitness (ln) (30 °C) | self-splicing fitness (ln) (37 °C)
1 | UCCCAGCAAUAUUACGCCCG | -3.3 ± 0.21 | -2.65 ± 0.31
2 | UCCCAGCAAUAUUACGCGAG | -3.41 ± 0.14 | -2.91 ± 0.2
3 | UCCCAGCAAUAUUACGCGCC | -3.11 ± 0.35 | -1.29 ± 0.21
4 | UCCCAGCAAUAUUACGGCCG | -3.44 ± 0.27 | -2.02 ± 0.32
5 | UCCCAGCAAUAUUACGGCCU | -2.43 ± 0.16 | -0.901 ± 0.17
6 | UCCCAGCAAUAUUACGGUAC | -3.29 ± 0.2 | -1.71 ± 0.17
7 | UCCCAGCAAUAUUACGUGAG | -1.52 ± 0.08 | -0.669 ± 0.083
8 | UCCGAGCAAUAUUACGAUAU | -1.5 ± 0.22 | -2.46 ± 0.41
9 | UCCGAGCAAUAUUACGCAAG | -3.27 ± 0.26 | -1.77 ± 0.32
10 | UCCGAGCAAUAUUACGCCGA | -1.56 ± 0.23 | -0.047 ± 0.16
11 | UCCGAGCAAUAUUACGCGAU | – | -2.3 ± 0.35
12 | UCCGAGCAAUAUUACGCGUC | -3.74 ± 0.37 | -1.53 ± 0.26
13 | UCCGAGCAAUAUUACGCGUG | -2.6 ± 0.12 | -1.3 ± 0.1
14 | UCCGAGCAAUAUUACGGACC | -2.53 ± 0.28 | -1.47 ± 0.36
15 | UCCGAGCAAUAUUACGGCAG | -3.55 ± 0.38 | -1.44 ± 0.34
16 | UCCGAGCAAUAUUACGGCCA | -0.297 ± 0.1 | -0.233 ± 0.12
17 | UCCGAGCAAUAUUACGGCCU | -3.24 ± 0.3 | -2.33 ± 0.38
18 | UCCGAGCAAUAUUACGGCUC | – | -0.168 ± 0.28
19 | UCCGAGCAAUAUUACGUACA | -2.89 ± 0.33 | –
20 | UCCGAGCAAUAUUACGUACC | -2.2 ± 0.2 | -1.93 ± 0.37
21 | UCCGAGCAAUAUUACGUUAG | -3.14 ± 0.15 | -2.56 ± 0.24
22 | UCCUAGCAAUAUUACGAACA | -2.9 ± 0.29 | -1.3 ± 0.22
23 | UCCUAGCAAUAUUACGACAU | -3.634 ± 0.026 | -2.16 ± 0.037
24 | UCCUAGCAAUAUUACGACGG | -2.14 ± 0.13 | -0.657 ± 0.14
25 | UCCUAGCAAUAUUACGAGGC | -2.31 ± 0.13 | -3.06 ± 0.26

Row | Sequence | self-splicing fitness (ln) (30 °C) | self-splicing fitness (ln) (37 °C)
26 | UCCUAGCAAUAUUACGCCAA | -3.18 ± 0.28 | -2.5 ± 0.25
27 | UCCUAGCAAUAUUACGCUCU | -3.33 ± 0.3 | -2.67 ± 0.3
28 | UCCUAGCAAUAUUACGCUUA | -2.77 ± 0.23 | -3.22 ± 0.35
29 | UCCUAGCAAUAUUACGGAAA | -1.98 ± 0.23 | -2.51 ± 0.29
30 | UCCUAGCAAUAUUACGGCUU | -3.41 ± 0.15 | -2.47 ± 0.2
31 | UCCUAGCAAUAUUACGGGAC | -3.32 ± 0.22 | -2.73 ± 0.2
32 | UCCUAGCAAUAUUACGGUAA | -0.552 ± 0.12 | -0.427 ± 0.11
33 | UCCUAGCAAUAUUACGGUUU | -1.44 ± 0.083 | -1.16 ± 0.12
34 | UCCUAGCAAUAUUACGUACA | -2.45 ± 0.27 | -0.735 ± 0.16
35 | UCCUAGCAAUAUUACGUAGC | -3.05 ± 0.14 | -2.23 ± 0.16
36 | UCCUAGCAAUAUUACGUAUU | -4.31 ± 0.2 | -2.48 ± 0.22
37 | UCCUAGCAAUAUUACGUGUG | -2.41 ± 0.28 | -2.47 ± 0.22
38 | UCCUAGCAAUAUUACGUGUU | -3.7 ± 0.21 | -2.94 ± 0.19
39 | UCCUAGCAAUAUUACGUUGC | -3.64 ± 0.16 | -2.74 ± 0.19
40 | UCCUAGCAAUAUUACGUUUA | -2.15 ± 0.18 | -2.54 ± 0.23
41 | UCGAAGCAAUAUUACGAAAU | – | -2.56 ± 0.41
42 | UCGAAGCAAUAUUACGACAU | -3.755 ± 0.027 | -2.29 ± 0.038
43 | UCGAAGCAAUAUUACGAUAC | -3.33 ± 0.25 | –
44 | UCGAAGCAAUAUUACGAUGC | -2.65 ± 0.15 | -1.92 ± 0.18
45 | UCGAAGCAAUAUUACGCACG | -1.8 ± 0.14 | -0.85 ± 0.14
46 | UCGAAGCAAUAUUACGCACU | -2.62 ± 0.18 | -0.962 ± 0.14
47 | UCGAAGCAAUAUUACGCAGA | -2.28 ± 0.2 | -2.85 ± 0.27
48 | UCGAAGCAAUAUUACGCGAU | -3.31 ± 0.32 | –
49 | UCGAAGCAAUAUUACGCGCC | – | -1.49 ± 0.28
50 | UCGAAGCAAUAUUACGCGUC | – | -0.484 ± 0.32

Row | Sequence | self-splicing fitness (ln) (30 °C) | self-splicing fitness (ln) (37 °C)
51 | UCGAAGCAAUAUUACGCUCA | -2.11 ± 0.19 | -0.861 ± 0.23
52 | UCGAAGCAAUAUUACGGACU | -1.07 ± 0.11 | 0.0804 ± 0.13
53 | UCGAAGCAAUAUUACGGAGA | -2.69 ± 0.24 | -2.44 ± 0.32
54 | UCGAAGCAAUAUUACGGAUG | -2.8 ± 0.13 | -1.68 ± 0.11
55 | UCGAAGCAAUAUUACGGGCA | -0.603 ± 0.094 | -0.507 ± 0.1
56 | UCGAAGCAAUAUUACGGUGA | -0.813 ± 0.077 | 0.158 ± 0.091
57 | UCGAAGCAAUAUUACGUAAA | -1.72 ± 0.11 | -0.804 ± 0.14
58 | UCGAAGCAAUAUUACGUGCA | -0.485 ± 0.096 | -0.214 ± 0.095
59 | UCGAAGCAAUAUUACGUGGA | -2.29 ± 0.14 | -2.46 ± 0.16
60 | UCGAAGCAAUAUUACGUGUA | -2.47 ± 0.17 | -1.71 ± 0.18
61 | UCGAAGCAAUAUUACGUUUC | -1.9 ± 0.14 | -3.66 ± 0.36
62 | UCGAAGCAAUAUUACGUUUG | -2.67 ± 0.13 | -1.88 ± 0.15
63 | UCGCAGCAAUAUUACGAAUU | -4.07 ± 0.34 | -2.75 ± 0.17
64 | UCGCAGCAAUAUUACGACAU | -3.604 ± 0.025 | -2.56 ± 0.037
65 | UCGCAGCAAUAUUACGAGUG | -1.48 ± 0.088 | -0.719 ± 0.1
66 | UCGCAGCAAUAUUACGAUAC | -3.52 ± 0.46 | -2.76 ± 0.34
67 | UCGCAGCAAUAUUACGAUGA | -0.691 ± 0.072 | 0.0326 ± 0.081
68 | UCGCAGCAAUAUUACGAUGC | -3.73 ± 0.28 | -1.64 ± 0.2
69 | UCGCAGCAAUAUUACGAUUG | -3.66 ± 0.18 | -1.9 ± 0.16
70 | UCGCAGCAAUAUUACGCACA | -0.0778 ± 0.1 | -0.131 ± 0.13
71 | UCGCAGCAAUAUUACGCACC | -1.68 ± 0.27 | -1.6 ± 0.38
72 | UCGCAGCAAUAUUACGCAGA | -3.72 ± 0.29 | -0.987 ± 0.12
73 | UCGCAGCAAUAUUACGCCCG | -1.51 ± 0.35 | –
74 | UCGCAGCAAUAUUACGCGGU | -4.16 ± 0.24 | -2.41 ± 0.28
75 | UCGCAGCAAUAUUACGCUGA | -2.33 ± 0.21 | -1.15 ± 0.14

Row | Sequence | self-splicing fitness (ln) (30 °C) | self-splicing fitness (ln) (37 °C)
76 | UCGCAGCAAUAUUACGCUUA | -1.67 ± 0.12 | -0.94 ± 0.09
77 | UCGCAGCAAUAUUACGGACU | -2.14 ± 0.16 | -0.513 ± 0.16
78 | UCGCAGCAAUAUUACGGAUA | -2.58 ± 0.25 | -2.44 ± 0.26
79 | UCGCAGCAAUAUUACGGCGG | -3.41 ± 0.17 | -2.28 ± 0.21
80 | UCGCAGCAAUAUUACGGUUC | -3.65 ± 0.43 | -1.66 ± 0.3
81 | UCGCAGCAAUAUUACGUAUG | -1.83 ± 0.1 | -2.02 ± 0.15
82 | UCGCAGCAAUAUUACGUCAC | -3.57 ± 0.15 | -2.85 ± 0.16
83 | UCGCAGCAAUAUUACGUCCU | -1 ± 0.097 | -0.105 ± 0.092
84 | UCGCAGCAAUAUUACGUCUU | -1 ± 0.11 | -0.165 ± 0.12
85 | UCGCAGCAAUAUUACGUGCG | -4.06 ± 0.22 | -3.23 ± 0.3
86 | UCGCAGCAAUAUUACGUUAG | -2.74 ± 0.15 | -1.63 ± 0.17
87 | UCGCAGCAAUAUUACGUUCA | -0.883 ± 0.07 | 0.0196 ± 0.064
88 | UCGGAGCAAUAUUACGAUUA | – | 0.203 ± 0.28
89 | UCGGAGCAAUAUUACGCUAC | -2.11 ± 0.34 | –
90 | UCGGAGCAAUAUUACGCUCU | -2.27 ± 0.36 | -1.68 ± 0.23
91 | UCGGAGCAAUAUUACGCUGC | -3.04 ± 0.38 | –
92 | UCGGAGCAAUAUUACGGAAU | – | -2.38 ± 0.42
93 | UCGGAGCAAUAUUACGGCUA | – | -1.32 ± 0.39
94 | UCGGAGCAAUAUUACGGCUG | -2.33 ± 0.18 | -1.5 ± 0.19
95 | UCGGAGCAAUAUUACGGGAC | – | -1.99 ± 0.29
96 | UCGGAGCAAUAUUACGGGCG | -1.37 ± 0.11 | -1.39 ± 0.18
97 | UCGGAGCAAUAUUACGGUGA | -1.82 ± 0.27 | -1.05 ± 0.2
98 | UCGGAGCAAUAUUACGUAAG | -2.77 ± 0.46 | -1.39 ± 0.42
99 | UCGGAGCAAUAUUACGUCCU | -1.79 ± 0.17 | -0.83 ± 0.25
100 | UCGGAGCAAUAUUACGUGGC | – | -1.95 ± 0.38
